Common to all, as to assay: potentiometry
What all share (conditions): 298 K, stated as 40 mM (SDS), 4 mM HClO4, no buffer

The target in series [1] is Nterm1 (position 1, -----FFHHIF).
In series [2] the target is Nterm1 (position 1, -----FIHHIF).
For a further series, the target named is Lys14 (position 14, …).
[3] abbreviates: 1:1 Zn(II) complex (Zn bound by three His imidazoles; N-terminus and Lys not coordinated).

In the case of FFHHIFRGIVHVGKTIHKLVTG [Piscidin 2 (Morone saxatilis x Morone chrysops (hybrid striped bass))], the pKa in series [1] (setting [3]) worked out at 8.04; in series [1] (metal-free peptide), 8.82.

In the case of FIHHIFRGIVHAGRSIGRFLTG [Piscidin 3 (Morone saxatilis x Morone chrysops (hybrid striped bass))], the pKa was 7.29 in series [2] (setting [3]) and 8.26 in series [2] (metal-free peptide).

For FFHHIFRGIVHVGKTIHRLVTG [Piscidin 1 (Morone saxatilis x Morone chrysops (hybrid striped bass))], the pKa with Lys14 (position 14, …) (1:1 Cu(II) complex, ATCUN 4N square-planar binding (N-terminal amine, two amides, His3 imidazole)) worked out at 9.82; with Lys14 (position 14, …) (setting [3]), 10.09; with Lys14 (position 14, …) (metal-free peptide), 10.02; in series [1] (setting [3]), 7.88; in series [1] (metal-free peptide) it was 8.36.

(Values after article PMC11256756.)
